Measured values reported in patent US20240400701A1 (LANOVA MEDICINES DEVELOPMENT, published 2024).

T1: human AMHRII (anti-Mullerian hormone receptor type 2) (human, UniProt Q16671 18-573)
T1 construct: whole, on cells; also called AMHR2; human AMHR2
T1 sequence (looked up): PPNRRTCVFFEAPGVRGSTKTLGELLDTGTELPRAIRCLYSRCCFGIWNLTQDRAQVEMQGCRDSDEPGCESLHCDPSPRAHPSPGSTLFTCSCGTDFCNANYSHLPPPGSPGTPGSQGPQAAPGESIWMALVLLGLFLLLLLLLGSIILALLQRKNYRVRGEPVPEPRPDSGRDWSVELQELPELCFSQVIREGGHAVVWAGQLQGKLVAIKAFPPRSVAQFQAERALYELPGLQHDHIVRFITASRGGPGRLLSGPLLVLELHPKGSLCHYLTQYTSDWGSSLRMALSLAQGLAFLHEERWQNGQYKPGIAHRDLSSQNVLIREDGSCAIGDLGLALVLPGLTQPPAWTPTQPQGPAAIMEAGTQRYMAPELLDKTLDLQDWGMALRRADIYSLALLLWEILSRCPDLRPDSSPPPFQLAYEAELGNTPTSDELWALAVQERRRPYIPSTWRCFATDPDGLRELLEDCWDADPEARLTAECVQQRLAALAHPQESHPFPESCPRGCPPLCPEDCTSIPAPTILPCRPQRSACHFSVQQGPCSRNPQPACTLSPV


These binders were tested against T1, human AMHRII (anti-Mullerian hormone …) (assay: FACS on CHO-K1 cells over-expressing human AMHR2).
Protocol: (§1) CHO-K1 cells over-expressed AMHR2 were harvested from flasks. 100 μl of 1×10⁶ cells/ml of cells were incubated with the humanized antibodies in 3-fold serial dilutions starting from 300 nM to 0.001 nM for 30 minutes on ice. After being washed with 200 μl of FACS buffer twice, cells were incubated with secondary antibody for 30 minutes on ice. Cells were washed with 200 μl of FACS buffer twice and analyzed by FACS.

| EC50 | Top (MFI) | Binder |
| --- | --- | --- |
| 1.32 nM | 55800 MFI | 94C4C3 H2L3 hIgG1 (antibody, V domains shown, Humanized, human IgG1; also called 94C4C3 H2L3 hlgG1) VH: QLQLQESGPGLVKPSETLSLTCTVSGYSITSDYAWNWIRQPPGKGLEWMGYISYSGSISYNPSLKSRITISRDTSKNQFSLKLSSVTAADTAVYYCARSRYSWFDYWGQGTLVTVSS VL: EIVLTQSPGTLSLSPGERATLSCSASESVDTYGNSFMHWYQQKPGQPPRLLIYRASSLESGIPVRFSGSGSRTDFTLTISRVEAEDFAVYYCQQSNEDPYTFGGGTKLEIK |
| 1.01 nM | 52500 MFI | 94C4C3 H2L4 hIgG1 (antibody, V domains shown, Humanized, human IgG1; also called 94C4C3 H2L4 hlgG1) VH: QLQLQESGPGLVKPSETLSLTCTVSGYSITSDYAWNWIRQPPGKGLEWMGYISYSGSISYNPSLKSRITISRDTSKNQFSLKLSSVTAADTAVYYCARSRYSWFDYWGQGTLVTVSS VL: DIVLTQSPGTLSVSPGERATLSCSASESVDTYGNSFMHWYQQKPGQPPKLLIYRASSLESGIPVRFSGSGSRTDFTLTISRVEAEDFAVYYCQQSNEDPYTFGGGTKLEIK |
| 0.485 nM | 22400 MFI | 31D9B3 VH1-VL2.2 hIgG1 (antibody, V domains shown, Humanized, PTM de-risked (VL G(30D)R), human IgG1; also called 31D9B3 VH1-VL2.2 hlgG1) VH: QVQLVQSGAEVKKPGASVKVSCKASGYTFTDYWVSWVRQAPGQGLEWMGEIYPKNGVSNFNEKFKGRVTMTTDTSTSTAYMELRSLRSDDTAVYYCARQRDYWGQGTLVTVSS VL: DVVMTQSPLSLPVTLGQPASISCRSSQSLEYGDRYTYLEWYLQRPGQSPRLLIYGVSNRFSGVPDRFSGSGSGTDFTLKISRVEAEDVGVYYCFQATHDPNTFGQGTKLEIK |

Biological target: T1, human AMHRII (anti-Mullerian hormone …)
Experiment: FACS on CHO-K1 cells over-expressing human AMHR2
Remark: another data set of the same source
Protocol: as §1

| EC50 | Top (MFI) | Binder |
| --- | --- | --- |
| 0.74 nM | 65400 MFI | 108F3D1E9 H3L1 hIgG1 (antibody, V domains shown, Humanized, human IgG1; also called 108F3D1E9 H3L1 hlgG1) VH: QVQLQESGPGLVKPSETLSLTCTVSGYSITSDFAWNWIRQFPGKGLEWMGYISFSGSTSYNPSLKSRITISRDTSKNQFSLKLSSVTAADTAVYYCAGSRYSWFAYWGQGTLVTVSS VL: DIQMTQSPSSLSASVGDRVTITCRASESVDTYGNSFMHWYQQKPGKAPKLLIYRASNLESGVPSRFSGSGSGTDFTLTISSLQPEDFATYYCQQSNEDPYTFGGGTKVEIK |
| 0.65 nM | 70600 MFI | 108F3D1E9 H4L4 hIgG1 (antibody, V domains shown, Humanized, human IgG1; also called 108F3D1E9 H4L4 hlgG1) VH: QVQLQESGPGLVKPSETLSLTCTVSGYSITSDFAWNWIRQFPGKGLEWMGYISFSGSTSYNPSLKSRITISRDTSKNQFFLQLSSVTAEDTAVYYCAGSRYSWFAYWGQGTLVTVSS VL: DIVLTQSPSSLSVSVGDRATITCRASESVDTYGNSFMHWYQQKPGQPPKLLIYRASNLESGIPARFSGSGSRTDFTLTISSVQPEDFATYYCQQSNEDPYTFGGGTKLEIK |
| 0.74 nM | 67300 MFI | 108F3D1E9 H4L3 hIgG1 (antibody, V domains shown, Humanized, human IgG1; also called 108F3D1E9 H4L3 hlgG1) VH: QVQLQESGPGLVKPSETLSLTCTVSGYSITSDFAWNWIRQFPGKGLEWMGYISFSGSTSYNPSLKSRITISRDTSKNQFFLQLSSVTAEDTAVYYCAGSRYSWFAYWGQGTLVTVSS VL: DIVLTQSPSSLSASVGDRVTITCRASESVDTYGNSFMHWYQQKPGQPPKLLIYRASNLESGIPARFSGSGSGTDFTLTISSVQPEDFATYYCQQSNEDPYTFGGGTKVEIK |
| 0.82 nM | 66700 MFI | 108F3D1E9 H3L3 hIgG1 (antibody, V domains shown, Humanized, human IgG1; also called 108F3D1E9 H3L3 hlgG1) VH: QVQLQESGPGLVKPSETLSLTCTVSGYSITSDFAWNWIRQFPGKGLEWMGYISFSGSTSYNPSLKSRITISRDTSKNQFSLKLSSVTAADTAVYYCAGSRYSWFAYWGQGTLVTVSS VL: DIVLTQSPSSLSASVGDRVTITCRASESVDTYGNSFMHWYQQKPGQPPKLLIYRASNLESGIPARFSGSGSGTDFTLTISSVQPEDFATYYCQQSNEDPYTFGGGTKVEIK |
| 0.82 nM | 64600 MFI | 108F3D1E9 H3L2 hIgG1 (antibody, V domains shown, Humanized, human IgG1; also called 108F3D1E9 H3L2 hlgG1) VH: QVQLQESGPGLVKPSETLSLTCTVSGYSITSDFAWNWIRQFPGKGLEWMGYISFSGSTSYNPSLKSRITISRDTSKNQFSLKLSSVTAADTAVYYCAGSRYSWFAYWGQGTLVTVSS VL: DIQLTQSPSSLSASVGDRVTITCRASESVDTYGNSFMHWYQQKPGKPPKLLIYRASNLESGIPSRFSGSGSGTDFTLTISSLQPEDFATYYCQQSNEDPYTFGGGTKVEIK |

The binders below were run against T1, human AMHRII (anti-Mullerian hormone …) (assay: FACS on Rko cells over-expressing human AMHR2).
Protocol: as §1, with “Rko” for “CHO-K1”, “over-expressing” for “over-expressed”, “primary PTM” for “the humanized”

| EC50 | Top (MFI) | Binder |
| --- | --- | --- |
| 0.915 nM | 17200 MFI | 31D9B3 VH1-VL2.2 hIgG1 (antibody, V domains shown, Humanized, PTM de-risked (VL G(30D)R), human IgG1; also called 31D9B3 VH1-VL2.2 hlgG1) VH: QVQLVQSGAEVKKPGASVKVSCKASGYTFTDYWVSWVRQAPGQGLEWMGEIYPKNGVSNFNEKFKGRVTMTTDTSTSTAYMELRSLRSDDTAVYYCARQRDYWGQGTLVTVSS VL: DVVMTQSPLSLPVTLGQPASISCRSSQSLEYGDRYTYLEWYLQRPGQSPRLLIYGVSNRFSGVPDRFSGSGSGTDFTLKISRVEAEDVGVYYCFQATHDPNTFGQGTKLEIK |
